Test results reported in article PMC10524254.

How the values were obtained:
[1] = surface FACS; details: glycan lost
[2] = IgM-TLR9 proximity ligation assay; details: glycan lost; control: wild type IgM
[3] = dual-color iSIM, Pearson correlation, TMD8; details: glycan lost; control: wild type IgM
[4] = IgM-LAMP1 proximity ligation assay; details: glycan lost; control: DMSO
[5] = dSTORM, Hopkins index and H-function, TMD8; details: glycan lost; control: untreated / control cells
[6] = anti-IgM Fab-pHrodo internalization, flow cytometry; details: glycan lost; control: DMSO
[7] = CD79A-BioID2 proximity labelling, SILAC MS, TMD8; details: glycan lost; control: DMSO

B1: IgM: quadruple mutant (N46Q, N209Q, N272Q, N279Q) (protein)
parent chain: GSASAPTLFPLVSCENSPSDTSSVAVGCLAQDFLPDSITFSWKYKNNSDISSTRGFPSVLRGGKYAATSQVLLPSKDVMQGTDEHVVCKVQHPNGNKEKNVPLPVIAELPPKVSVFVPPRDGFFGNPRKSKLICQATGFSPRQIQVSWLREGKQVGSGVTTDQVQAEAKESGPTTYKVTSTLTIKESDWLGQSMFTCRVDHRGLTFQQNASSMCVPDQDTAIRVFAIPPSFASIFLTKSTKLTCLVTDLTTYDSVTISWTRQNGEAVKTHTNISESHPNATFSAVGEASICEDDWNSGERFTCTVTHTDLPSPLKQTISRPKGVALHRPDVYLLPPAREQLNLRESATITCLVTGFSPADVFVQWMQRGQPLSPEKYVTSAPMPEPQAPGRYFAHSILTVSEEEWNTGETYTCVVAHEALPNRVTERTVDKSTEGEVSADEEGFENLWATASTFIVLFLLSLFYSTTVTLFKVK
With B1 the localisation_or_trafficking ([1]; control: wild type IgM) was “no change”.

B2: CD79B: N73Q (protein)
parent chain: MARLALSPVPSHWMVALLLLLSAEPVPAARSEDRYRNPKGSACSRIWQSPRFIARKRGFTVKMHCYMNSASGNVSWLWKQEMDENPQQLKLEKGRMEESQNESLATLTIQGIRFEDNGIYFCQQKCNNTSEVYQGCGTELRVMGFSTLAQLKQRNTLKDGIIMIQTLLIILFIIVPIFLLLDKDDSKAGMEEDHTYEGLDIDQTATYEDIVTLRTGEVKWSVGEHPGQE
In the case of B2, the localisation_or_trafficking ([1]; control: wild type CD79B) is reported as “no change”.

B3: CD79B: N101Q (protein)
parent chain: MARLALSPVPSHWMVALLLLLSAEPVPAARSEDRYRNPKGSACSRIWQSPRFIARKRGFTVKMHCYMNSASGNVSWLWKQEMDENPQQLKLEKGRMEESQNESLATLTIQGIRFEDNGIYFCQQKCNNTSEVYQGCGTELRVMGFSTLAQLKQRNTLKDGIIMIQTLLIILFIIVPIFLLLDKDDSKAGMEEDHTYEGLDIDQTATYEDIVTLRTGEVKWSVGEHPGQE
In the case of B3, the localisation_or_trafficking ([1]; control: wild type CD79B) is reported as “no change”.

B4: CD79B: triple mutant (N73Q, N101Q, N127Q) (protein)
parent chain: MARLALSPVPSHWMVALLLLLSAEPVPAARSEDRYRNPKGSACSRIWQSPRFIARKRGFTVKMHCYMNSASGNVSWLWKQEMDENPQQLKLEKGRMEESQNESLATLTIQGIRFEDNGIYFCQQKCNNTSEVYQGCGTELRVMGFSTLAQLKQRNTLKDGIIMIQTLLIILFIIVPIFLLLDKDDSKAGMEEDHTYEGLDIDQTATYEDIVTLRTGEVKWSVGEHPGQE
In the case of B4, the localisation_or_trafficking ([1]; control: wild type CD79B) is reported as “no change”.

B5: CD79A: N112Q (protein)
parent chain: MPGGPGVLQALPATIFLLFLLSAVYLGPGCQALWMHKVPASLMVSLGEDAHFQCPHNSSNNANVTWWRVLHGNYTWPPEFLGPGEDPNGTLIIQNVNKSHGGIYVCRVQEGNESYQQSCGTYLRVRQPPPRPFLDMGEGTKNRIITAEGIILLFCAVVPGTLLLFRKRWQNEKLGLDAGDEYEDENLYEGLNLDDCSMYEDISRGLQGTYQDVGSLNIGDVQLEKP
With B5 the localisation_or_trafficking ([1]; control: wild type CD79A) was “no change”.

B6: IgM: N46 mutant (protein)
parent chain: GSASAPTLFPLVSCENSPSDTSSVAVGCLAQDFLPDSITFSWKYKNNSDISSTRGFPSVLRGGKYAATSQVLLPSKDVMQGTDEHVVCKVQHPNGNKEKNVPLPVIAELPPKVSVFVPPRDGFFGNPRKSKLICQATGFSPRQIQVSWLREGKQVGSGVTTDQVQAEAKESGPTTYKVTSTLTIKESDWLGQSMFTCRVDHRGLTFQQNASSMCVPDQDTAIRVFAIPPSFASIFLTKSTKLTCLVTDLTTYDSVTISWTRQNGEAVKTHTNISESHPNATFSAVGEASICEDDWNSGERFTCTVTHTDLPSPLKQTISRPKGVALHRPDVYLLPPAREQLNLRESATITCLVTGFSPADVFVQWMQRGQPLSPEKYVTSAPMPEPQAPGRYFAHSILTVSEEEWNTGETYTCVVAHEALPNRVTERTVDKSTEGEVSADEEGFENLWATASTFIVLFLLSLFYSTTVTLFKVK
With B6 the “other: proximity (My-T-BCR formation)” value [2] was “decreases” and the “other: plasma-membrane colocalisation” value [3] was “increases”.

B7: IgM: N209 mutant (protein)
parent chain: GSASAPTLFPLVSCENSPSDTSSVAVGCLAQDFLPDSITFSWKYKNNSDISSTRGFPSVLRGGKYAATSQVLLPSKDVMQGTDEHVVCKVQHPNGNKEKNVPLPVIAELPPKVSVFVPPRDGFFGNPRKSKLICQATGFSPRQIQVSWLREGKQVGSGVTTDQVQAEAKESGPTTYKVTSTLTIKESDWLGQSMFTCRVDHRGLTFQQNASSMCVPDQDTAIRVFAIPPSFASIFLTKSTKLTCLVTDLTTYDSVTISWTRQNGEAVKTHTNISESHPNATFSAVGEASICEDDWNSGERFTCTVTHTDLPSPLKQTISRPKGVALHRPDVYLLPPAREQLNLRESATITCLVTGFSPADVFVQWMQRGQPLSPEKYVTSAPMPEPQAPGRYFAHSILTVSEEEWNTGETYTCVVAHEALPNRVTERTVDKSTEGEVSADEEGFENLWATASTFIVLFLLSLFYSTTVTLFKVK
For B7, the “other: proximity (My-T-BCR formation)” value [2] was “decreases” and the “other: plasma-membrane colocalisation” value [3] was “increases”.

B8: IgM: NGI-1 (protein)
parent chain: GSASAPTLFPLVSCENSPSDTSSVAVGCLAQDFLPDSITFSWKYKNNSDISSTRGFPSVLRGGKYAATSQVLLPSKDVMQGTDEHVVCKVQHPNGNKEKNVPLPVIAELPPKVSVFVPPRDGFFGNPRKSKLICQATGFSPRQIQVSWLREGKQVGSGVTTDQVQAEAKESGPTTYKVTSTLTIKESDWLGQSMFTCRVDHRGLTFQQNASSMCVPDQDTAIRVFAIPPSFASIFLTKSTKLTCLVTDLTTYDSVTISWTRQNGEAVKTHTNISESHPNATFSAVGEASICEDDWNSGERFTCTVTHTDLPSPLKQTISRPKGVALHRPDVYLLPPAREQLNLRESATITCLVTGFSPADVFVQWMQRGQPLSPEKYVTSAPMPEPQAPGRYFAHSILTVSEEEWNTGETYTCVVAHEALPNRVTERTVDKSTEGEVSADEEGFENLWATASTFIVLFLLSLFYSTTVTLFKVK
For B8, the localisation_or_trafficking [4] was “decreases”, the “other: surface clustering” value [5] was “decreases” and the localisation_or_trafficking [6] was “decreases”.

B9: IgM: STT3B knockout (protein)
parent chain: GSASAPTLFPLVSCENSPSDTSSVAVGCLAQDFLPDSITFSWKYKNNSDISSTRGFPSVLRGGKYAATSQVLLPSKDVMQGTDEHVVCKVQHPNGNKEKNVPLPVIAELPPKVSVFVPPRDGFFGNPRKSKLICQATGFSPRQIQVSWLREGKQVGSGVTTDQVQAEAKESGPTTYKVTSTLTIKESDWLGQSMFTCRVDHRGLTFQQNASSMCVPDQDTAIRVFAIPPSFASIFLTKSTKLTCLVTDLTTYDSVTISWTRQNGEAVKTHTNISESHPNATFSAVGEASICEDDWNSGERFTCTVTHTDLPSPLKQTISRPKGVALHRPDVYLLPPAREQLNLRESATITCLVTGFSPADVFVQWMQRGQPLSPEKYVTSAPMPEPQAPGRYFAHSILTVSEEEWNTGETYTCVVAHEALPNRVTERTVDKSTEGEVSADEEGFENLWATASTFIVLFLLSLFYSTTVTLFKVK
For B9, the “other: surface clustering” value [5] was “decreases”.

B10: CD79A: NGI-1 (protein)
parent chain: MPGGPGVLQALPATIFLLFLLSAVYLGPGCQALWMHKVPASLMVSLGEDAHFQCPHNSSNNANVTWWRVLHGNYTWPPEFLGPGEDPNGTLIIQNVNKSHGGIYVCRVQEGNESYQQSCGTYLRVRQPPPRPFLDMGEGTKNRIITAEGIILLFCAVVPGTLLLFRKRWQNEKLGLDAGDEYEDENLYEGLNLDDCSMYEDISRGLQGTYQDVGSLNIGDVQLEKP
For B10, the “other: proximity” value [7] was “increases”.

B11: IgM: N209Q (protein)
parent chain: GSASAPTLFPLVSCENSPSDTSSVAVGCLAQDFLPDSITFSWKYKNNSDISSTRGFPSVLRGGKYAATSQVLLPSKDVMQGTDEHVVCKVQHPNGNKEKNVPLPVIAELPPKVSVFVPPRDGFFGNPRKSKLICQATGFSPRQIQVSWLREGKQVGSGVTTDQVQAEAKESGPTTYKVTSTLTIKESDWLGQSMFTCRVDHRGLTFQQNASSMCVPDQDTAIRVFAIPPSFASIFLTKSTKLTCLVTDLTTYDSVTISWTRQNGEAVKTHTNISESHPNATFSAVGEASICEDDWNSGERFTCTVTHTDLPSPLKQTISRPKGVALHRPDVYLLPPAREQLNLRESATITCLVTGFSPADVFVQWMQRGQPLSPEKYVTSAPMPEPQAPGRYFAHSILTVSEEEWNTGETYTCVVAHEALPNRVTERTVDKSTEGEVSADEEGFENLWATASTFIVLFLLSLFYSTTVTLFKVK
With B11 the localisation_or_trafficking ([1]; control: wild type IgM) was “no change”.
